Here are results for 9 molecules from US20240141072A1 (published 2024).

The term Kd denotes the constant that tells how readily two partners part at equilibrium.

Positions count from the first letter of the chain named. Where only a bound is given, the exact number is not on record here.

T1: human DLL3 on DLL3-expressing tumor cell lines (human, UniProt Q9NYJ7 27-618)
T1 sequence: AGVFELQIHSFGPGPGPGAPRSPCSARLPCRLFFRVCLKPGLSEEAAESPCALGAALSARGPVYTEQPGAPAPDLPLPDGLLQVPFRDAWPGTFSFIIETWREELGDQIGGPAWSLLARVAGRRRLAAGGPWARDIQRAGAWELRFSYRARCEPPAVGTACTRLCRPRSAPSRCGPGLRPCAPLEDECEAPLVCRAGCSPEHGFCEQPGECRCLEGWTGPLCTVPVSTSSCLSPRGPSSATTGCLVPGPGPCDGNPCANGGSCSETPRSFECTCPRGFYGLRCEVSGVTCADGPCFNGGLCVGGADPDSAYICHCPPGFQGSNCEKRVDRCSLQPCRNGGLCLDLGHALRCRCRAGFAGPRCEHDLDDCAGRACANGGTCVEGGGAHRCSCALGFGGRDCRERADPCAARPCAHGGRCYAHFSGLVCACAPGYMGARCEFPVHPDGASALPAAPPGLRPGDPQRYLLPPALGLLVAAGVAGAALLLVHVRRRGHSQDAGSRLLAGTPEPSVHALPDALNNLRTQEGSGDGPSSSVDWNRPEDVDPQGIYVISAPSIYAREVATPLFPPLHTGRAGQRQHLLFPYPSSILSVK

T2: biotinylated human DLL3 protein expressed as a human IgG1 fusion protein (human, UniProt Q9NYJ7 27-492, limits assumed, biotinylated)
T2 sequence: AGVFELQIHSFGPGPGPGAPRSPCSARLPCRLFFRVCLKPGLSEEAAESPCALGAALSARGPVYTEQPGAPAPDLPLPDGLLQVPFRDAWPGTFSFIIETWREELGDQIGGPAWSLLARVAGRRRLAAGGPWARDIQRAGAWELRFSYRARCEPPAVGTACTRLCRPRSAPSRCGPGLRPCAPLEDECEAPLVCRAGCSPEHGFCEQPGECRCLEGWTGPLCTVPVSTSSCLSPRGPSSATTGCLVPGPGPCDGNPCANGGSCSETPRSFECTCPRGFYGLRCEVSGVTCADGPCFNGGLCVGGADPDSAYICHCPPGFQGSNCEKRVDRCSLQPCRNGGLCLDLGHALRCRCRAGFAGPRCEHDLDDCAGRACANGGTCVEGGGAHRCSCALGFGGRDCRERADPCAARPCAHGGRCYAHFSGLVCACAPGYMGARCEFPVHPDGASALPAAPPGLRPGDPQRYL

T3: cynomolgus DLL3 (cynomolgus, UniProt A0A2K5WSR1 27-490)
T3 construct: also called cyDLL3
T3 sequence: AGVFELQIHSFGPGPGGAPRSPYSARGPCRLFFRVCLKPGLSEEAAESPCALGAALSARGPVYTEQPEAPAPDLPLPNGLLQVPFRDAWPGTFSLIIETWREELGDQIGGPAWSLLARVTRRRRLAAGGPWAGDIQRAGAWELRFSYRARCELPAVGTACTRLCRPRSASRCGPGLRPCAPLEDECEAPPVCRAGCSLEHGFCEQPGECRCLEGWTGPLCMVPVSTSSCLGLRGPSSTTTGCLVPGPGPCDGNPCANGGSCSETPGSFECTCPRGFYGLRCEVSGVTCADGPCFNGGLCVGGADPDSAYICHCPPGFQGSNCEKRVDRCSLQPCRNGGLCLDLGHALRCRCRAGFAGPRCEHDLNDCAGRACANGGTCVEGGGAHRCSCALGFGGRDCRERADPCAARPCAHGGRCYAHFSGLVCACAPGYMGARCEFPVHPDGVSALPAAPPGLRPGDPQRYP

B1: 1H012 anti-DLL3 trispecific protein (other)
chain: EVQLVESGGGLVQPGGSLTLSCVASGSTSSINAMGWYRRAPGKQRELVAGISSDGSKVYVDSVKGRFTISRDNAKNSVYLQMNSLRAEDTAVYYCYYFRTVSGSSMPYWGQGTLVTVSS
notes: also called 1H12; not shown: linker 1808, anti-albumin sdAb, linker 1808, anti-CD3 fragment, His6 1819
B2: 4H011 anti-DLL3 trispecific protein (other)
chain: EVQLVESGGGLVQPGGSLTLSCAASGSSVSRLSMAWYRQAPGKKRELVAGISVDGSTDYIDSVKGRFTISRDNAKNSVYLQMNSLRAEDTAVYYCYAYRWTTRLTYWGQGTLVTVSS
notes: also called 4H11; not shown: linker 1808, anti-albumin sdAb, linker 1808, anti-CD3 fragment, His6 1819
B3: 1A011 anti-DLL3 trispecific protein (other)
chain: B1 chain with M34I, V60I, M106Y, P107R
notes: also called 1A11; not shown: linker 1808, anti-albumin sdAb, linker 1808, anti-CD3 fragment, His6 1819
B4: 2E02 anti-DLL3 trispecific protein (other)
chain: B1 chain with S30A, M106Q, P107R
notes: not shown: linker 1808, anti-albumin sdAb, linker 1808, anti-CD3 fragment, His6 1819
B5: 2E05 anti-DLL3 trispecific protein (other)
chain: B1 chain with T28P, M34Y, V60S, P107S
notes: as for B4
B6: 2H02 anti-DLL3 trispecific protein (other)
chain: B1 chain with G35A, V48A, V60A, R99H, P107R
notes: as for B4
B7: 4D09 anti-DLL3 trispecific protein (other)
chain: B2 chain with S30K, R31F, V53A, D61L, R99E, L104Y
notes: as for B4
B8: cynomolgus DLL3 protein (Example 6) (ligand)
chain: T3 sequence
notes: also called cyDLL3
B9: human DLL3 protein (Example 6) (ligand)
chain: T2 sequence
notes: also called huDLL3

T7 sequence (chain, as listed by the source): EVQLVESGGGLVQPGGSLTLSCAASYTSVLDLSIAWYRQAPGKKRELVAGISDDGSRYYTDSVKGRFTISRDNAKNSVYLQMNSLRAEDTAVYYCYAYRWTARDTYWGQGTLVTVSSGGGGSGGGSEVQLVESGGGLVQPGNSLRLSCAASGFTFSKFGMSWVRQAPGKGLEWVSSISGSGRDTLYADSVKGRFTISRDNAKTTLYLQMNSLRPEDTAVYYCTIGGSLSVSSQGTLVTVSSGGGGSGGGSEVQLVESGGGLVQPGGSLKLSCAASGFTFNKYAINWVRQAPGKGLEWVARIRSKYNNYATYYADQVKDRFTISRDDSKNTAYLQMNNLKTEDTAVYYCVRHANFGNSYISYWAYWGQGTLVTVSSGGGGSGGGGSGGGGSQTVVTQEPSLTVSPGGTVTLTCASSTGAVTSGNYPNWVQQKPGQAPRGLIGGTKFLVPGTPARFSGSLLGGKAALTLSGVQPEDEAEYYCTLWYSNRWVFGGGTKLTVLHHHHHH
T10 sequence (chain, as listed by the source): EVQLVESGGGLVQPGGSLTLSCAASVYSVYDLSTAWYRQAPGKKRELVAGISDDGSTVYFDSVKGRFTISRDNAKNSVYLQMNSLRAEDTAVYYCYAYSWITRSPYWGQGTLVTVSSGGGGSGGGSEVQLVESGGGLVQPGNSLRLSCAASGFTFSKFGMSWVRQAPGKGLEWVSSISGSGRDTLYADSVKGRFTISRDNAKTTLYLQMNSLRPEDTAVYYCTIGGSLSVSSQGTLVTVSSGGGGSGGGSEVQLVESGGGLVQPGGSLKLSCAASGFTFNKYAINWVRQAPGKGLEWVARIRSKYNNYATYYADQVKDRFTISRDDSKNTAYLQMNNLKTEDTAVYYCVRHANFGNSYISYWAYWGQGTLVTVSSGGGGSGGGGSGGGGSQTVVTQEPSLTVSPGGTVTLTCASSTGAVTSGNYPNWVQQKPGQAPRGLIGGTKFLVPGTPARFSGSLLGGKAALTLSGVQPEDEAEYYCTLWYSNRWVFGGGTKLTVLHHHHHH

For the first test, the target named is T1, human DLL3 on DLL3-expressing tumor …. The experiment in a line: cell-based or functional assay.
B1: the “fold increase in TDCC potency compared to the parental DLL3 binder DH43” value was more than 7 fold.

For B2, the “fold increase in TDCC potency compared to the parental DLL3 binder molecule (DH6)” value was more than 8 fold.

The next test has the same target. The experiment in a line: cell-based or functional assay. This is another data set of the same source.
Regarding B1, the “DMS-153 TDCC EC50” value was found to be 0.028 nM.

B3: the “DMS-153 TDCC EC50” value worked out at 0.051 nM.

As for B4, the “DMS-153 TDCC EC50” value turned out to be 0.059 nM.

In the case of B5, the “DMS-153 TDCC EC50” value is 0.033 nM.

Turning to B6, the “DMS-153 TDCC EC50” value is 0.031 nM.

In the case of B7, the “DMS-153 TDCC EC50” value was 0.052 nM.

For the molecule B2, the “DMS-153 TDCC EC50” value is 0.036 nM.

For a further test the target is unchanged. The experiment in a line: cell-based or functional assay. This is another data set of the same source.
Take B1: the “DMS-153 TDCC EC50” value came out at 0.063 nM.

Consider B3, for which the “DMS-153 TDCC EC50” value stood at 0.17 nM.

As for B4, the “DMS-153 TDCC EC50” value was determined as 0.12 nM.

With B5, the “DMS-153 TDCC EC50” value amounted to 0.072 nM.

As to B6, the “DMS-153 TDCC EC50” value stood at 0.096 nM.

For B7, the “DMS-153 TDCC EC50” value is 0.06 nM.

In a further test the target is T2, biotinylated human DLL3 protein …. The experiment in a line: Octet BLI, single 50 nM. The gist of the method:
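Affinities reflect binding of the trispecific constructs, supplied as conditioned medium of known protein concentration rather than purified material, to immobilised human DLL3 fusion protein.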
On the technique in general: BLI is a label-free optical method that tracks binding on a fibre tip over time.
As for B1, the Kd was determined as 3.5 nM.

The molecule B3 had a Kd of 3.7 nM.

Consider B4, for which the affinity, expressed as Kd, was 6 nM.

Turning to B5, binding was put at a Kd of 3.9 nM.

For B6, the affinity, expressed as Kd, was 4.4 nM.

In the case of B7, the Kd turned out to be 4.7 nM.

Regarding B2, binding was characterised by a dissociation constant (Kd) of 4.5 nM.

Another test has as its target T3, cynomolgus DLL3. The test is described as follows: Octet BLI, single 60 nM.
On to B1, for which the affinity, expressed as Kd, was 4.3 nM.

B3 displayed a Kd of 3.6 nM.

B4 registered a Kd of 3.4 nM.

Consider B5, for which the Kd came to 4.8 nM.

B6 came in with a Kd of 5.2 nM.

In the case of B7, the Kd turned out to be 8.2 nM.

Molecule B2 returned a Kd of 5.7 nM.

A further test concerns the target T2, biotinylated human DLL3 protein …. The test is described as follows: Octet BLI, 60/20/6.67/2.22 nM. As to the method:
Using the conditioned medium with known concentrations of the anti-DLL3 trispecific proteins, the binding affinities of the anti-DLL3 trispecific proteins toward human DLL3 protein were measured using a method where biotinylated version of human DLL3 protein were expressed as a human IgG1 fusion protein, and the binding affinity measurement was carried out in an Octet instrument with streptavidin tips.
Molecule B1 came in with a Kd of 2.9 nM.

Molecule B3 registered a Kd of 3.5 nM.

B4 yielded a Kd of 4.4 nM.

B5 had a Kd of 3.5 nM.

As for B6, the Kd was determined as 4.4 nM.

Take B7: the Kd turned out to be 8.1 nM.

As for B2, the affinity, expressed as Kd, was 3.9 nM.

For a further test, the target named is T4, anti-DLL3 trispecific protein with DLL3 binding domain 52C04.
T4 construct: trispecific, one chain; also called 52C4
T4 sequence (chain, as listed by the source): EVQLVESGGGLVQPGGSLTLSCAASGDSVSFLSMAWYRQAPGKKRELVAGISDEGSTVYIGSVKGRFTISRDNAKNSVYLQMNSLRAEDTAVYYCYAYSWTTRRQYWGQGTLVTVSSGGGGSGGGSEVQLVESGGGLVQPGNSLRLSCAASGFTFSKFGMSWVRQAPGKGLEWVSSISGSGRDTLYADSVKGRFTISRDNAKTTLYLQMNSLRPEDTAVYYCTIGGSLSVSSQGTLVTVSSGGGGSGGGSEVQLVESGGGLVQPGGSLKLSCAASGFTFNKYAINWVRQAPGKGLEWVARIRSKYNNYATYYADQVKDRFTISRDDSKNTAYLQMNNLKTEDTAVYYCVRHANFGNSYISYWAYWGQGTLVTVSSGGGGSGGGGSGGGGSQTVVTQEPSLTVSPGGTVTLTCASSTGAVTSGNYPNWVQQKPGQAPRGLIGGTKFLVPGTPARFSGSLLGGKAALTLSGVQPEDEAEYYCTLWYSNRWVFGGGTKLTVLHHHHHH
The experiment in a line: Octet BLI; biotinylated purified CHO trispecific on streptavidin tips; 60, 20, 6.67, 2.22 nM.
B8: the Kd is 3 nM.

B9 displayed a Kd of 2.2 nM.

The target of another test is T5, anti-DLL3 trispecific protein with DLL3 binding domain 51A05.
T5 construct: trispecific, one chain; also called 51A5
T5 sequence (chain, as listed by the source): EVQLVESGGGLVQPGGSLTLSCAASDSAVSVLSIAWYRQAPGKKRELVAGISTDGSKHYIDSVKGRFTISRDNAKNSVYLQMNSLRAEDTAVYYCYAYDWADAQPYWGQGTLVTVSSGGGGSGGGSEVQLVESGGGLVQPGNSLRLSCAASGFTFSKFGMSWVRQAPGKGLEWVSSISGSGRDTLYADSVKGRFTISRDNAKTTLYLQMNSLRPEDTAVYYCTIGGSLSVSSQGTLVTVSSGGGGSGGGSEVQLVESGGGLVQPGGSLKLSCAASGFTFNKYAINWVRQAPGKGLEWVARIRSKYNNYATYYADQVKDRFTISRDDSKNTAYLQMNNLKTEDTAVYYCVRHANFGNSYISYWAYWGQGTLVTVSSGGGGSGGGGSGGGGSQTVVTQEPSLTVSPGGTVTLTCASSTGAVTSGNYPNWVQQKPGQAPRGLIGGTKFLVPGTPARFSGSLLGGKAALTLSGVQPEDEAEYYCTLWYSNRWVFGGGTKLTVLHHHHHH
The description is as above.
As to B8, the dissociation constant (Kd) is 1.6 nM.

B9 had a Kd of 1.2 nM.

The target of a further test is T6, anti-DLL3 trispecific protein with DLL3 binding domain 51G02.
T6 construct: trispecific, one chain; also called 51G2
T6 sequence (chain, as listed by the source): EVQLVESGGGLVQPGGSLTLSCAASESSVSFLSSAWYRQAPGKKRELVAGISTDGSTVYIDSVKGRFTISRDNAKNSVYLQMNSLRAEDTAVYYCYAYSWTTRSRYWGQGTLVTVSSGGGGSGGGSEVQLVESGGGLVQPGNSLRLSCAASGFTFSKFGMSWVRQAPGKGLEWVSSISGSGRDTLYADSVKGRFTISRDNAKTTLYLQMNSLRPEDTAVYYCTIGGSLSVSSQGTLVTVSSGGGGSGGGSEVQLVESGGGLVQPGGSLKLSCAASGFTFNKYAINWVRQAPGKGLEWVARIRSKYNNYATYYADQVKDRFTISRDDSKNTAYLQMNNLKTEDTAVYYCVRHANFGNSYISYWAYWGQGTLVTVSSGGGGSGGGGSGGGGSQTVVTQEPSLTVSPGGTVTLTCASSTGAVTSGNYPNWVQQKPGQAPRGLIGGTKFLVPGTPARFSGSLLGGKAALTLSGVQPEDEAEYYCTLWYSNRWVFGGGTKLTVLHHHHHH
Described as above.
B8 registered a Kd of 3.4 nM.

With B9, the Kd was found to be 2 nM.

Another test concerns the target T7, anti-DLL3 trispecific protein with DLL3 binding domain 51F03.
T7 construct: trispecific, one chain; also called 51F3
Described as above.
The molecule B8 returned a Kd of 2 nM.

B9 yielded a Kd of 1.4 nM.

For a further test, the target named is T8, anti-DLL3 trispecific protein with DLL3 binding domain 52D04.
T8 construct: trispecific, one chain; same domain order as the TAC protein m79; also called 52D4
T8 sequence (chain, as listed by the source): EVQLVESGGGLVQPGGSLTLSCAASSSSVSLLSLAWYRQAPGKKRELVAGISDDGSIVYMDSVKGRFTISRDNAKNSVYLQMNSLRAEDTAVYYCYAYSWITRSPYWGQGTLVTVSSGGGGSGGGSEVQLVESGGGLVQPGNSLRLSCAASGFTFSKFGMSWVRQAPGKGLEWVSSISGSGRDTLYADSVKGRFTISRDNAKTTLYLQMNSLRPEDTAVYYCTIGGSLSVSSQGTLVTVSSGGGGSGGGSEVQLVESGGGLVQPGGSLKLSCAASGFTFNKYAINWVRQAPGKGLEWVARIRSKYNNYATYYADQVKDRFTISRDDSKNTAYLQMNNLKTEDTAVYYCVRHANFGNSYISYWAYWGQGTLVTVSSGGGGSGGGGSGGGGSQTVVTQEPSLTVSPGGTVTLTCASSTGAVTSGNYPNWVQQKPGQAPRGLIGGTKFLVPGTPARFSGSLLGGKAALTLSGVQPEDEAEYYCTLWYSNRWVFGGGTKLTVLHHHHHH
The description is as above.
For the molecule B8, the Kd is 1.7 nM.

For B9, binding was put at a Kd of 0.9 nM.

The target in another test is T9, anti-DLL3 trispecific protein with DLL3 binding domain 51G10.
T9 construct: trispecific, one chain
T9 sequence (chain, as listed by the source): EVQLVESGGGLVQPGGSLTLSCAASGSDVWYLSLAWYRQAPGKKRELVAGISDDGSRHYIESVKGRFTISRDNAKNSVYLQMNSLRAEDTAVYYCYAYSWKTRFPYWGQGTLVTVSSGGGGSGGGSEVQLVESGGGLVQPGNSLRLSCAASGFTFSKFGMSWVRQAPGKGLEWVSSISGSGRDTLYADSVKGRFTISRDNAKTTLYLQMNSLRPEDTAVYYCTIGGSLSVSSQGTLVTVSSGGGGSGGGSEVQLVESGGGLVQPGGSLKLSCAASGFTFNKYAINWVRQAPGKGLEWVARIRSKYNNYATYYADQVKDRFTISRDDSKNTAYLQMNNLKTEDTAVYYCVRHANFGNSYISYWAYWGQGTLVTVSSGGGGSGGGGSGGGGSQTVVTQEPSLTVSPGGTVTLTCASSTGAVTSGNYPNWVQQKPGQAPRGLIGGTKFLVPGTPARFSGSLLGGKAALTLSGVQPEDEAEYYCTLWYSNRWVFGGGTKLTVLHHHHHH
The test is described as above.
Regarding B8, the Kd came out at 1.4 nM.

For the molecule B9, the Kd was determined as 0.9 nM.

Another test addresses T10, anti-DLL3 trispecific protein with DLL3 binding domain 52B01.
T10 construct: trispecific, one chain; also called 52B1
Described as above.
In turn, B8 showed a Kd of 1.9 nM.

Molecule B9 gave a Kd of 1.1 nM.

The target in the next test is T11, anti-DLL3 trispecific protein containing the parental DLL3 binder DH6.
T11 construct: trispecific, one chain
T11 sequence (chain, as listed by the source): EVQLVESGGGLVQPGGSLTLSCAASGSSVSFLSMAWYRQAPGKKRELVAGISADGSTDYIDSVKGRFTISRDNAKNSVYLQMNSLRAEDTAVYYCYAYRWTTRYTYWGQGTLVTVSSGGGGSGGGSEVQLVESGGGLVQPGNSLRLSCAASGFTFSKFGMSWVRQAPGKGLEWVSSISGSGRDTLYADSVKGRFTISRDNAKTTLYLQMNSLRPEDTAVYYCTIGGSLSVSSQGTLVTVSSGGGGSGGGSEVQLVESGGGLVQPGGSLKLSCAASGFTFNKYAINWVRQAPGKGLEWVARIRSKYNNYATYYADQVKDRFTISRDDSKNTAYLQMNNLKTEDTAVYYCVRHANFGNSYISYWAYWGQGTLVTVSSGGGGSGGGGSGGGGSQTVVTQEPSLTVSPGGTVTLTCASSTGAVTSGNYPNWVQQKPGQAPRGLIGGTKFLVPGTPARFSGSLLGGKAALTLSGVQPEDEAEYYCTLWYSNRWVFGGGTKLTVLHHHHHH
Described as above.
On to B8, for which the Kd was found to be 11 nM.

For the molecule B9, the Kd amounted to 13.5 nM.

The target in the next test is T12, anti-DLL3 trispecific protein with DLL3 binding sequence 51X5.
T12 construct: trispecific, one chain
T12 sequence (chain, as listed by the source): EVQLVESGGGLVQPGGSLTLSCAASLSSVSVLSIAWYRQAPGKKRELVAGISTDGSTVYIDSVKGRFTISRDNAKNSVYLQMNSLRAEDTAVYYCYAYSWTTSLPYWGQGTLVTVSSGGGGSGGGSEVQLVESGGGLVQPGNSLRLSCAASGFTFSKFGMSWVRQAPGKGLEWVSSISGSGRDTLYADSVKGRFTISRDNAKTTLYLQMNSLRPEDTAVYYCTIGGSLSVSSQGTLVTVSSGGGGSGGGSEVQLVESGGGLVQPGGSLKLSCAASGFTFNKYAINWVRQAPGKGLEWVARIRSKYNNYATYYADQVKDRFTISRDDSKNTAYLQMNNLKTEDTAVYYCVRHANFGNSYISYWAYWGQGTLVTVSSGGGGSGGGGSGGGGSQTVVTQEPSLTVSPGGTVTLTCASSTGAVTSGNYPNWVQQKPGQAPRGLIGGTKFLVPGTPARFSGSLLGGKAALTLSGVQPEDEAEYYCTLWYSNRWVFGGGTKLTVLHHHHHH
The test is described as above.
The molecule B8 showed an equilibrium dissociation constant (Kd) of 1.5 nM.

On to B9, for which the Kd is 1 nM.

In the next test the target is T13, anti-DLL3 trispecific protein with DLL3 binding domain 51H05.
T13 construct: trispecific, one chain; also called 51H5
T13 sequence (chain, as listed by the source): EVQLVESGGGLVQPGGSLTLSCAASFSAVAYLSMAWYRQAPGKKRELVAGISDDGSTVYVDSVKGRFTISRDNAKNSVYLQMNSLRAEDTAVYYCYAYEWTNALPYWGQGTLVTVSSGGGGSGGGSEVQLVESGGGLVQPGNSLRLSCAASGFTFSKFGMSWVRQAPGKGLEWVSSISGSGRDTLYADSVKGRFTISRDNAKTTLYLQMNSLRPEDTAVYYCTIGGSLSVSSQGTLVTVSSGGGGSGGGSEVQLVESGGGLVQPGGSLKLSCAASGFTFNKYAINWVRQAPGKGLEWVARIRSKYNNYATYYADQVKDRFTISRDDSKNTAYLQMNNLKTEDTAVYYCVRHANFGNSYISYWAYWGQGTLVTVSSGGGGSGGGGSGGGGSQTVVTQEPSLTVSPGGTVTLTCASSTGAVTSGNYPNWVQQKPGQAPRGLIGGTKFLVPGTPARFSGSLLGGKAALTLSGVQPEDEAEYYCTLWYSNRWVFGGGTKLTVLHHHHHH
The description is as above.
As to B8, the Kd was 1.6 nM.

For the molecule B9, the Kd is 0.9 nM.
